Key:
[1] = target: individual catalytic domain of human MT3-MMP (human)
[2] = target: individual catalytic domain of human MT6-MMP (human)
[3] = target: individual catalytic domain of human MT2-MMP (human)
[4] = target: individual catalytic domain of human MT5-MMP (human)
[5] = target: individual catalytic domain of human MT4-MMP (human)
Chain of individual catalytic domain of human MT4-MMP (human) (Q9ULZ9 36-603): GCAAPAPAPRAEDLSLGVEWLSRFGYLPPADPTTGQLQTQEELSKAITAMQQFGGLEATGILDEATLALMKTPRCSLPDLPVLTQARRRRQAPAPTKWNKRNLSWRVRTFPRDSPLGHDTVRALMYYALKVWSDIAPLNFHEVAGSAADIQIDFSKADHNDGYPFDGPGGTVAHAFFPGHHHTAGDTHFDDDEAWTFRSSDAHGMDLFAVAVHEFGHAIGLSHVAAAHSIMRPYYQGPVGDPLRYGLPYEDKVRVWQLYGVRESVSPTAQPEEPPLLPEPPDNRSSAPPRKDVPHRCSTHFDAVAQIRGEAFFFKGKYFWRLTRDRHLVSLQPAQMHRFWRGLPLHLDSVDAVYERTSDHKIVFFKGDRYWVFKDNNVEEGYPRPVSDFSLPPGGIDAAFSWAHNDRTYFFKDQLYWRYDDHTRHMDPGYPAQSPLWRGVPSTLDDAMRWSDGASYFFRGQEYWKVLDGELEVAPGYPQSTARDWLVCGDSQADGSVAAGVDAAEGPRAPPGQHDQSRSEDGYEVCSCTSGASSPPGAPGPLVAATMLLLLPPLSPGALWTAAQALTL

Chain of individual catalytic domain of human MT5-MMP (human) (Q9Y5R2 53-645): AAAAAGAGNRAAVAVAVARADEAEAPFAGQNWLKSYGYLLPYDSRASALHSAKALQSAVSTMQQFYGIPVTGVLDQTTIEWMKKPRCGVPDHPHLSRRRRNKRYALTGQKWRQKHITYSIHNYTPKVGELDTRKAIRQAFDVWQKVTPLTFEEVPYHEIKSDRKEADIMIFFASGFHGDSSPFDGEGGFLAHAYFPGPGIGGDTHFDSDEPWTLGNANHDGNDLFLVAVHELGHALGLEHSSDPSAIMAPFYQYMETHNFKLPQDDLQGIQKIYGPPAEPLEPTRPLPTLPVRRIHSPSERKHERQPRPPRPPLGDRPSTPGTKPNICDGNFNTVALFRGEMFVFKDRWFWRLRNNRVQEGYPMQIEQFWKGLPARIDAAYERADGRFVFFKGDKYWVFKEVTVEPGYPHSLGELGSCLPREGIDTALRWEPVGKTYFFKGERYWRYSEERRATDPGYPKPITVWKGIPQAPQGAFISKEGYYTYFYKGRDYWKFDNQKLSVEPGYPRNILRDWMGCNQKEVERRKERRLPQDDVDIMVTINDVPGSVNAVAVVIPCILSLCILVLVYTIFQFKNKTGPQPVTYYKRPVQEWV
Chain of individual catalytic domain of human MT3-MMP (human) (P51512 32-607): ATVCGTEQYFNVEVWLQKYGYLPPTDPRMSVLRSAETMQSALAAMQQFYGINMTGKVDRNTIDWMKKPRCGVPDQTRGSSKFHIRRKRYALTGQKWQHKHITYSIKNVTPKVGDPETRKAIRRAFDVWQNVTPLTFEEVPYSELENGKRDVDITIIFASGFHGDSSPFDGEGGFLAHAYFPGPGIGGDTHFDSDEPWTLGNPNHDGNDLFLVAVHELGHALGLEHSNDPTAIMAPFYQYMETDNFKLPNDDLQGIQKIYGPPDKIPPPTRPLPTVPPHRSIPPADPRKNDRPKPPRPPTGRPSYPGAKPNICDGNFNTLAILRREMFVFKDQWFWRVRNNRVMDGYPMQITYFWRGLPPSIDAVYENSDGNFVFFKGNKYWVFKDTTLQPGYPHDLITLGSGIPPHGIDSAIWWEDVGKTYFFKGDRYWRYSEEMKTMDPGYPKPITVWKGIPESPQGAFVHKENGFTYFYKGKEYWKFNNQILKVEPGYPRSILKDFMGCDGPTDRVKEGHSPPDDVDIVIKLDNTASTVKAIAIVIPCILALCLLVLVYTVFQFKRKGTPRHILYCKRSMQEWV
Chain of individual catalytic domain of human MT6-MMP (human) (Q9NPA2 22-562): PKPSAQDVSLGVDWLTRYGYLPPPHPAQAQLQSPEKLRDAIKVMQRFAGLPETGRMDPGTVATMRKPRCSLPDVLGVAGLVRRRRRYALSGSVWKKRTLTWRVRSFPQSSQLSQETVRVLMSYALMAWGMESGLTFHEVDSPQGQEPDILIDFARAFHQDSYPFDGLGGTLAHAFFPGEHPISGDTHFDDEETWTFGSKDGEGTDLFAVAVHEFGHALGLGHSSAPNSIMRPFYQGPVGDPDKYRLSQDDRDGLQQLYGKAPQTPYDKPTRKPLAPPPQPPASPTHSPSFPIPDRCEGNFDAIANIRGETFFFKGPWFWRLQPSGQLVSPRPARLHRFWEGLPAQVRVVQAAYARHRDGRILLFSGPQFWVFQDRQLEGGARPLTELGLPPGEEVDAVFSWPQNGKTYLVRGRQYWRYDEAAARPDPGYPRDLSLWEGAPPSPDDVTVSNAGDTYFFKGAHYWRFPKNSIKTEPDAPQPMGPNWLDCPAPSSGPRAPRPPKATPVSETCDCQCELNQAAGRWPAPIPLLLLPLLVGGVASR
Chain of individual catalytic domain of human MT2-MMP (human) (P51511 42-669): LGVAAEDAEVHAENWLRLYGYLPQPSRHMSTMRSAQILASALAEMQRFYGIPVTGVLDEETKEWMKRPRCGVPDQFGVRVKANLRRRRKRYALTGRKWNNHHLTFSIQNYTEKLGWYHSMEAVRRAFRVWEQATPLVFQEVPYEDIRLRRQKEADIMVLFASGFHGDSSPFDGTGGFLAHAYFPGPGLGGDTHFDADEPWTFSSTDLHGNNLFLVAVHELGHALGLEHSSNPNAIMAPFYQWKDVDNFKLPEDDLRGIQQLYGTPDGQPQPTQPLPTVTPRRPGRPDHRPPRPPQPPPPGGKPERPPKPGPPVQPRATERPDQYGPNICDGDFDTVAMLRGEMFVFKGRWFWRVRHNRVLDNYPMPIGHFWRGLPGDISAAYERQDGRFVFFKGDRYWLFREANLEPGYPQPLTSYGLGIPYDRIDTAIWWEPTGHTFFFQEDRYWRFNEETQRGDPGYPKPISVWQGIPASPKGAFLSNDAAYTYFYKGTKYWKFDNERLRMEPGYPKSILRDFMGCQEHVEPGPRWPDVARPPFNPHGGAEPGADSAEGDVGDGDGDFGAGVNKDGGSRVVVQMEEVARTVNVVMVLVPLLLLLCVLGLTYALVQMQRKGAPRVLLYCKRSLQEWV

IC50 of inhibition of the CAT of MT3-MMP (5 nM), cleavage of Mca-PLGL-Dpa-AR-NH2 (1 uM); 3A2 Fab 0-5,000 nM [1]: 335 nM | IC50 of inhibition of the CAT of MT6-MMP (5 nM), cleavage of Mca-PLGL-Dpa-AR-NH2 (1 uM); 3A2 Fab 0-5,000 nM [2]: > 5000 nM | IC50 of inhibition of the CAT of MT2-MMP (5 nM), cleavage of Mca-PLGL-Dpa-AR-NH2 (1 uM); 3A2 Fab 0-5,000 nM [3]: 1800 nM | IC50 of inhibition of the CAT of MT5-MMP (5 nM), cleavage of Mca-PLGL-Dpa-AR-NH2 (1 uM); 3A2 Fab 0-5,000 nM [4]: 425 nM | IC50 of inhibition of the CAT of MT4-MMP (5 nM), cleavage of Mca-PLGL-Dpa-AR-NH2 (1 uM); 3A2 Fab 0-5,000 nM [5]: > 5000 nM
B1: 3A2 Fab (Fab, V domains shown)
VH: EVQLVESGGGLVQPGGSLRLSCAASGFNLSSSSMHWVRQAPGKGLEWVASIYPSYSYTYYADSVKGRFTISADTSKNTAYLQMNSLRAEDTAVYYCARVKLQKDKSHQWIRNLVATPYGRYVMDYWGQGTLVTVSS
VL: DIQMTQSPSSLSASVGDRVTITCRASQSVSSAVAWYQQKPGKAPKLLIYSASSLYSGVPSRFSGSRSGTDFTLTISSLQPEDFATYYCQQYGYPITFGQGTKVEIK

Source: article PMC5356841
